Target: T1, GST-TUD1 (Oryza sativa subsp. japonica (Rice), UniProt Q10PI9)
T1 chain: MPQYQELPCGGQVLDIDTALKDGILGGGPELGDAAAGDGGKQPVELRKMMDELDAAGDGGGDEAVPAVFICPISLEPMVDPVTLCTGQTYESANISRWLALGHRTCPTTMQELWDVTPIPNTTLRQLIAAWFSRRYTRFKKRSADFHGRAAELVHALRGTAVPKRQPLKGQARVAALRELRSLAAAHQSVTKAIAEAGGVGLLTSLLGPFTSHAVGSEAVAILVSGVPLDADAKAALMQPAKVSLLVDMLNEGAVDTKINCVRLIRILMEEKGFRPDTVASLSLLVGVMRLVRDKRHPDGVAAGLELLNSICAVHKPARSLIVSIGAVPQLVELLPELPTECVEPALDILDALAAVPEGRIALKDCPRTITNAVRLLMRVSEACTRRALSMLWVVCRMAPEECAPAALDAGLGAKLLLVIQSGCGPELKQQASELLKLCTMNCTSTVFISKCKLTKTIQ
Experiment: GST pull-down

binding result: binds
B1: D1-tagged His (purified D1 fusion protein) (protein)
chain: MGSSCSRSHSLSEAETTKNAKSADIDRRILQETKAEQHIHKLLLLGAGESGKSTIFKQIKLLFQTGFDEAELRSYTSVIHANVYQTIKILYEGAKELSQVESDSSKYVISPDNQEIGEKLSDIDGRLDYPLLNKELVLDVKRLWQDPAIQETYLRGSILQLPDCAQYFMENLDRLAEAGYVPTKEDVLYARVRTNGVVQIQFSPVGENKRGGEVYRLYDVGGQRNERRKWIHLFEGVNAVIFCAAISEYDQMLFEDETKNRMMETKELFDWVLKQRCFEKTSFILFLNKFDIFEKKIQKVPLSVCEWFKDYQPIAPGKQEVEHAYEFVKKKFEELYFQSSKPDRVDRVFKIYRTTALDQKLVKKTFKLIDESMRRSREGT

— PMC3597501 (2013)
